Source: article PMC11071394
“And” between values parts separate entries of the source, which are not always exact repeats. Equal entries are not always repeated.

Target: Sg Enc, Family 2B encapsulin shell protein from Streptomyces griseus (expressed in S. coelicolor A3(2)) (Streptomyces griseus)
Experiment: cryo-EM structure

Row | Substance | 2-MIBS dimers per shell (dimers per shell) | stoichiometry N
1 | Sg 2-methylisoborneol synthase (2-MIBS) from Streptomyces griseus, co-expressed with Sg Enc (enzyme) | 3 and 4 | –
2 | Sg Enc, Family 2B encapsulin shell protein from Streptomyces griseus (expressed in S. coelicolor A3(2)) (natural protein) | – | 60 protomers
